# Source: publication PMC5797019, “Peptide inhibition of the SETD6 methyltransferase catalytic activity” (Oncotarget, 2017)
# Target: GST-SETD6 (UniProt Q8TBK2)
# Sequence (Q8TBK2 whole entry): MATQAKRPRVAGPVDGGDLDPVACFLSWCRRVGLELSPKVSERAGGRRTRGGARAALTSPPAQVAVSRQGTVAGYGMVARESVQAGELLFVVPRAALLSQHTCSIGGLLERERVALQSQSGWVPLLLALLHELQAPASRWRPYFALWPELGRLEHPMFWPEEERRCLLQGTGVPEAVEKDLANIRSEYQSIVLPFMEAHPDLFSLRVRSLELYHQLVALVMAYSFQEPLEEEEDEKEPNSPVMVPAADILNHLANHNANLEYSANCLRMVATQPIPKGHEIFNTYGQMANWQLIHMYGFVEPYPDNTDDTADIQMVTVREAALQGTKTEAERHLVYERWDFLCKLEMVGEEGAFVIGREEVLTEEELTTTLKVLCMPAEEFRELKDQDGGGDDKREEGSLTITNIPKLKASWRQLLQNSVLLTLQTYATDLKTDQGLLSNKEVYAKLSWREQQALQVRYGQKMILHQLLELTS
substance,measurement,value
vp22-RelA302-316 peptide (from UniProt Q04206 302-316),auto-methylation signal of recombinant GST-SETD6 (in vitro methylation assay with 3H-labeled S-adenosyl methionine) with increasing amounts of vp22-RelA; significant reduction at 0.5 μM,2 µM
